Data taken from patent publication US20250205280A1 (Janssen / Centocor, published 2025).

T1: IL1RAP on H1975 cells (human, UniProt Q9NPH3 21-570)
T1 construct: whole, on cells; also called ILIRAP; H1975 tumor cell line expressing ILIRAP
T1 sequence (looked up): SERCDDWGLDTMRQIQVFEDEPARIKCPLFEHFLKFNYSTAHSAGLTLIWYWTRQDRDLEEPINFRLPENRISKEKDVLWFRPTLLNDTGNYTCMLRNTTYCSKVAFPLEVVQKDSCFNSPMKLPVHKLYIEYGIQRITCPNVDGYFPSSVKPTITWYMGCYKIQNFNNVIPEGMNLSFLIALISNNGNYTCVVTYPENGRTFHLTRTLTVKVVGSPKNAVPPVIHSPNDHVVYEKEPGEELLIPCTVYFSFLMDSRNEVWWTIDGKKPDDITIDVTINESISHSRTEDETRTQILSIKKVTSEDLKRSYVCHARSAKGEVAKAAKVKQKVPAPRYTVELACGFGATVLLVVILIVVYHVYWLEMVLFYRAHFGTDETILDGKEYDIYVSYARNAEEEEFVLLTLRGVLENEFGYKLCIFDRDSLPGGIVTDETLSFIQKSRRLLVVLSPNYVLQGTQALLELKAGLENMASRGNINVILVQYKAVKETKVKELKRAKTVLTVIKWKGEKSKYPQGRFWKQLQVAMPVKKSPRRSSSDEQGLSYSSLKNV


Assays:
PSMA on 22Rv1 cells = molecular target: T2, PSMA on 22Rv1 cells (human, UniProt Q04609 1-750); test: flow cytometry on 22Rv1 cells, % binding; top middle panel
T2 construct: whole, on cells; also called 22Rv1 tumor cell line expressing PSMA
T2 sequence (Q04609 whole entry): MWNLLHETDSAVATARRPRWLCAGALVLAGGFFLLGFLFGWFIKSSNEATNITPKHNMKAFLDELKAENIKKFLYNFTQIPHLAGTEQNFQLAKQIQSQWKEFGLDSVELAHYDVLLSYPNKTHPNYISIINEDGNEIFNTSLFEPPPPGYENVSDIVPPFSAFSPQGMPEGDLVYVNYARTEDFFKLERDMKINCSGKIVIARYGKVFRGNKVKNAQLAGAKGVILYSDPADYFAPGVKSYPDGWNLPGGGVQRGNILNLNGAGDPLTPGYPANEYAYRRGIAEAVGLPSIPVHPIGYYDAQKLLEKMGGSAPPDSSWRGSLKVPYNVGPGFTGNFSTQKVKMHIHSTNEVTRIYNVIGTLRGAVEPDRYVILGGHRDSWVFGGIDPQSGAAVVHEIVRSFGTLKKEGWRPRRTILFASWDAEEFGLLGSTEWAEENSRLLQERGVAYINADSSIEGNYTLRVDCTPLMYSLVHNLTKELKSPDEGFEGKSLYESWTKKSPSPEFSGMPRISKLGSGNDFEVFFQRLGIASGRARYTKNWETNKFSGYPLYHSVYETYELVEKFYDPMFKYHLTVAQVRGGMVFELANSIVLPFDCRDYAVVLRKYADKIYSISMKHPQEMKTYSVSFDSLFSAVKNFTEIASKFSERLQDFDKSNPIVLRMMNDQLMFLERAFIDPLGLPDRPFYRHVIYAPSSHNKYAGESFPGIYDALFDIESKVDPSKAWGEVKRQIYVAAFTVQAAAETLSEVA

[1] = molecular target: T3, Vβ17 (TRBV19) T cell receptor on Vβ17+CD8+ T cells (human); test: flow cytometry on M1 peptide expanded CD8+ T cells, PE anti-human IgG4 secondary, % binding; bottom middle panel, second EC50 line, square curve (right of the circles)
T3 construct: whole, on cells; also called Vβ17+ T cells
T3 sequence (A0A075B6N1 22-114): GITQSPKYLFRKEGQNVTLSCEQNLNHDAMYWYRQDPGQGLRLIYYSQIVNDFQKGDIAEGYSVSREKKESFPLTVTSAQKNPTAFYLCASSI
Method: (§1) Binding of Vβ17 bispecific antibodies to its respective tumor associated antigen (TAA) expressing cell line and CD8+ T cells was carried out by flow cytometry. Briefly, 50,000 target cells or CD8+ T cells were incubated at 4° C. for 45 minutes with serial dilutions of various bispecific antibodies or its null arm control bispecific antibodies. After washing with wash buffer (PBS+2% FBS), bispecific antibody bound to cell surface was detected by incubating the cells with PE labelled mouse anti human IgG4 secondary antibody (SouthernBiotech, Birmingham, AL) for 30 minutes at 4° C. Cells were washed with wash buffer (PBS+2% FBS) and the fluorescence of stained cells was measured on Novocyte flow cytometer. Cells were visualized on forward and sideward scatter and doublets were excluded. No secondary antibody control was used to establish background fluorescence and to gate on specific population. Background value was subtracted from main samples to get specific binding value. […] For all binding assays, tumor associated antigen (TAA) expression on cell lines and the abundance of Vβ17+ cells among Pan-T cells or CD8+ T cells were assessed by staining them with specific monoclonal antibody.
(§2) Mouse anti-human IgG4 Fc-PE secondary antibody was used to detect the bispecific antibody using FACS method.

[2] = molecular target: T3, Vβ17 (TRBV19) T cell receptor on …; test: flow cytometry on M1 peptide expanded CD8+ T cells, PE anti-human IgG4 secondary, % binding; bottom right panel, second EC50 line, square curve (right of the circles)
Method: as §1, §2

CD123 on Kasumi-3 cells = molecular target: T4, CD123 on Kasumi-3 cells (UniProt P26951 19-378, limits assumed); test: flow cytometry on Kasumi-3 cells, % binding; top left panel
T4 construct: whole, on cells; also called tumor associated antigen (TAA) on Kasumi-3
T4 sequence (P26951 19-378 limits assumed): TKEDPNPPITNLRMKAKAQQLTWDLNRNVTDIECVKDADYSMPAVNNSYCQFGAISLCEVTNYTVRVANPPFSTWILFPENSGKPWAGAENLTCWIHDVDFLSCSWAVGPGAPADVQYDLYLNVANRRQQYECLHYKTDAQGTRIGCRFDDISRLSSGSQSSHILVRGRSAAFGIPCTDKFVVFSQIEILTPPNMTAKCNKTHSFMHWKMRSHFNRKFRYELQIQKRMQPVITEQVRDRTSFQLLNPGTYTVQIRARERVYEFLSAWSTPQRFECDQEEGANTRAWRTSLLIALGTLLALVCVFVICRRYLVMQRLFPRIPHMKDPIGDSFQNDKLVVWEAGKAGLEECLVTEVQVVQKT

IL1RAP on H1975 cells [3] = molecular target: T1, IL1RAP on H1975 cells; test: flow cytometry on H1975 cells, % binding; top right panel
[4] = molecular target: T3, Vβ17 (TRBV19) T cell receptor on …; test: flow cytometry on total (Vβ17 non-depleted) CD8+ T cells from PBMCs, % binding
Method: as §1

[5] = molecular target: T3, Vβ17 (TRBV19) T cell receptor on …; test: flow cytometry on M1 peptide expanded CD8+ T cells, PE anti-human IgG4 secondary, % binding; bottom left panel, second EC50 line, square curve (right of the circles)
Method: as §1, §2

IL1RAP on H1975 cells [6] = molecular target: T1, IL1RAP on H1975 cells; test: flow cytometry on H1975 cells expressing IL1RAP, detected with anti-human IgG4 Fc-PE
Method: as §1

[7] = molecular target: T3, Vβ17 (TRBV19) T cell receptor on …; test: flow cytometry on M1 peptide expanded CD8+ T cells, PE anti-human IgG4 secondary, % binding; bottom right panel, first EC50 line, circle curve (left of the squares)
Method: as §1, §2

[8] = molecular target: T3, Vβ17 (TRBV19) T cell receptor on …; test: flow cytometry on enriched M1 peptide-stimulated CD8+ T cells (day 14), frequency of positive cells, anti-human IgG4 Fc-PE
Method: as §1, §2

Binder	binding result (PSMA on 22Rv1 cells)	EC50 [1] [nM]	EC50 [2] [nM]	binding result (CD123 on Kasumi-3 cells)	binding result (IL1RAP on H1975 cells [3])	EC50 (read off the curve) [4] [µg/mL]	EC50 [5] [nM]	EC50 (IL1RAP on H1975 cells [6]) [nM]	EC50 [7] [nM]	EC50 [8] [nM]
Vβ17/Null (bispecific antibody, human IgG4 S228P, kappa, F234A L235A, also called Vβ17/NULL arm control bispecific antibody; Vβ17XNULL) Vβ17 half antibody (B17B21; light chain, linker and heavy chain in one polypeptide): DIQMTQSPSSLSASVGDRVTITCRSSQSLVHSNGNTYLHWYQQKPGKAPKFLIYKVSNRFSGVPSRFSGSGSGTDFTLTISSLQPEDFATYYCSQSTHVPFTFGQGTKLEIKRTVAAPSVFIFPPSDEQLKSGTASVVCLLNNFYPREAKVQWKVDNALQSGNSQESVTEQDSKDSTYSLSSTLTLSKADYEKHKVYACEVTHQGLSSPVTKSFNRGECGGSEGKSSGSGSESKSTEGKSSGSGSESKSTGGSQVQLQESGPGLVKPSETLSLTCTVSGYSITSGYFWNWIRQPPGKGLEWIGYISYDGSNNYNPSLKSRVTISRDTSKNQFSLKLSSVTAADTAVYYCASPSPGTGYAVDYWGQGTLVTVSSASTKGPSVFPLAPCSRSTSESTAALGCLVKDYFPEPVTVSWNSGALTSGVHTFPAVLQSSGLYSLSSVVTVPSSSLGTKTYTCNVDHKPSNTKVDKRVESKYGPPCPPCPAPEAAGGPSVFLFPPKPKDTLMISRTPEVTCVVVDVSQEDPEVQFNWYVDGVEVHNAKTKPREEQFNSTYRVVSVLTVLHQDWLNGKEYKCKVSNKGLPSSIEKTISKAKGQPREPQVYTLPPSQEEMTKNQVSLSCAVKGFYPSDIAVEWESNGQPENNYKTTPPVLDSDGSFFLVSRLTVDKSRWQEGNVFSCSVMHEALHNRFTQKSLSLSLGK null half antibody (B23B49; light chain, linker and heavy chain in one polypeptide): not shown	no binding (tested: 10 µg/mL)	3.75	2.8	no binding (tested: about 5 µg/mL)	no binding (tested: about 30 µg/mL)	~0.3	2.4			
Vβ17/IL1RAP bispecific antibody (bispecific antibody, human IgG4 S228P, kappa, lambda, F234A L235A, also called Vβ17XIL1RAP) chain 1: DIQMTQSPSSLSASVGDRVTITCRSSQSLVHSNGNTYLHWYQQKPGKAPKFLIYKVSNRFSGVPSRFSGSGSGTDFTLTISSLQPEDFATYYCSQSTHVPFTFGQGTKLEIKRTVAAPSVFIFPPSDEQLKSGTASVVCLLNNFYPREAKVQWKVDNALQSGNSQESVTEQDSKDSTYSLSSTLTLSKADYEKHKVYACEVTHQGLSSPVTKSFNRGECGGSEGKSSGSGSESKSTEGKSSGSGSESKSTGGSQVQLQESGPGLVKPSETLSLTCTVSGYSITSGYFWNWIRQPPGKGLEWIGYISYDGSNNYNPSLKSRVTISRDTSKNQFSLKLSSVTAADTAVYYCASPSPGTGYAVDYWGQGTLVTVSSASTKGPSVFPLAPCSRSTSESTAALGCLVKDYFPEPVTVSWNSGALTSGVHTFPAVLQSSGLYSLSSVVTVPSSSLGTKTYTCNVDHKPSNTKVDKRVESKYGPPCPPCPAPEAAGGPSVFLFPPKPKDTLMISRTPEVTCVVVDVSQEDPEVQFNWYVDGVEVHNAKTKPREEQFNSTYRVVSVLTVLHQDWLNGKEYKCKVSNKGLPSSIEKTISKAKGQPREPQVYTLPPSQEEMTKNQVSLSCAVKGFYPSDIAVEWESNGQPENNYKTTPPVLDSDGSFFLVSRLTVDKSRWQEGNVFSCSVMHEALHNRFTQKSLSLSLGK chain 2: QSALTQPRSVSGSPGHSVTISCTGTSSDVGDYNYVSWYQQRPGKVPKLLIYDVSKRPSGVPDRFSGSKSGNTASLTISGLQAEDEAIYFCASYAGNYNVVFGGGTKLTVLGQPKAAPSVTLFPPSSEELQANKATLVCLISDFYPGAVTVAWKADSSPVKAGVETTTPSKQSNNKYAASSYLSLTPEQWKSHRSYSCQVTHEGSTVEKTVAPTECSGGSEGKSSGSGSESKSTEGKSSGSGSESKSTGGSQVQLVQSGSELKKPGASVKVSCKASGYTFNTYAMNWVRQAPGQGLEWMGWINTNTGNPTYAQGFTGRFVFSLDTSVSTAYLQISSLKAEDTAVYYCARRYFDWLLGAFDIWGQGTMVTVSSASTKGPSVFPLAPCSRSTSESTAALGCLVKDYFPEPVTVSWNSGALTSGVHTFPAVLQSSGLYSLSSVVTVPSSSLGTKTYTCNVDHKPSNTKVDKRVESKYGPPCPPCPAPEAAGGPSVFLFPPKPKDTLMISRTPEVTCVVVDVSQEDPEVQFNWYVDGVEVHNAKTKPREEQFNSTYRVVSVLTVLHQDWLNGKEYKCKVSNKGLPSSIEKTISKAKGQPREPQVYTLPPSQEEMTKNQVSLWCLVKGFYPSDIAVEWESNGQPENNYKTTPPVLDSDGSFFLYSRLTVDKSRWQEGNVFSCSVMHEALHNHYTQKSLSLSLGK								11.3	0.33	2.8
